Assays:
[1] = molecular target: chloroplastic glutamine synthetase GS2 of wheat (Triticum aestivum (endogenous in wheat seedlings)); experiment: native gel or EMSA; modified blue native electrophoresis (BNE), 4-13% polyacrylamide gradient gel, 4 °C; 1 h with cathode buffer with 0.02% Coomassie G250, then buffer without dye; ~100 ug soluble proteins from wheat seedling chloroplasts, leaves and roots; GS bands detected by in-gel transferase activity; mass calibrated against high-molecular-weight markers
[2] = molecular target: cytosolic glutamine synthetase GS1 holoenzyme of wheat (39 kDa subunit) (Triticum aestivum (endogenous in wheat seedlings)) (UniProt Q45NB7); experiment: as above
[3] = molecular target: maize glutamine synthetase (maize (endogenous in maize leaf and roots)); experiment: native gel or EMSA; maize leaf and root extracts beside wheat (Supplementary Fig. S5); gel system not given

## chloroplastic glutamine synthetase GS2 of wheat (natural protein)
[1]
  stoichiometry N: 6

## cytosolic glutamine synthetase GS1 holoenzyme of wheat (39 kDa subunit) (from UniProt Q45NB7 1-356) (natural protein)
[2]
  stoichiometry N: 12

## maize glutamine synthetase (natural protein)
[3]
  stoichiometry N: 10

Reference: publication PMC4623691
